Source: publication PMC2174547 (The Journal of Cell Biology, 2000)
“And” between values parts separate entries of the source, which are not always exact repeats. Equal entries are not always repeated.

B1: 6xHis-PEX14 amino acids 1–147 (domain or fragment)
chain: MASSEQAEQPSQPSSTPGSENVLPREPLIATAVKFLQNSRVRQSPLATRRAFLKKKGLTDEEIDMAFQQSGTAADEPSSLGPATQVVPVQPPHLISQPYSPAGSRWRDYGALAIIMAGIAFGFHQLYKKYLLPLILGGREDRKQLER

Experiments:
6xHis-PEX19 (human) = 6xHis-PEX19 (human) (UniProt P40855); experiment: far-Western, overlay or dot blot
6xHis-PEX19 = target: T1, 6xHis-PEX19 (human, UniProt P40855 1-299); experiment: far-Western, overlay or dot blot
T1 sequence: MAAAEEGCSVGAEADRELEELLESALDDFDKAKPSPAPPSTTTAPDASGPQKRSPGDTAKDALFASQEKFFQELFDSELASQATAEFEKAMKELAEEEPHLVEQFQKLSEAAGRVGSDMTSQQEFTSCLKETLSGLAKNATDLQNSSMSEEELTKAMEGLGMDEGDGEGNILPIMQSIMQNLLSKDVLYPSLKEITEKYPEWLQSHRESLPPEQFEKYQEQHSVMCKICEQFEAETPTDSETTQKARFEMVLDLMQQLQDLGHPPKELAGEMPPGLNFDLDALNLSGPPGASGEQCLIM

Molecule | Kd (6xHis-PEX19 (human)) | IC50 (6xHis-PEX19) [nM]
6xHis-PEX14 (from UniProt O75381 1-377) (natural protein) | 350 nM and 800 nM and 500 nM | –
B1 | – | 30000
